The data set deals with human chorionic gonadotropin (hCG), alpha/beta heterodimer (Homo sapiens) (UniProt P01215+P0DN86). Particulars: hCG magnetic beads with qPCR, artificial urine; round 6 pool 2.54%, round 7 20.88%, round 8 22.85%. Background: In qPCR the cycle at which signal appears reflects the starting amount.
human chorionic gonadotropin (hCG), alpha/beta heterodimer (Homo sapiens), sequence (P01215 25-116, chain 1 of 2, other chains not shown): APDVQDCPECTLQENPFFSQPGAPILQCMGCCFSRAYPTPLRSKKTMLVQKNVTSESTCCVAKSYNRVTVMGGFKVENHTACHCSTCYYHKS

In turn, “TCGCACATTCCGCTTCTACCNNNNNNNNNNNNNNNNNNNNNNNNNNNNNNNNNNNNNNNNCGTAAGTCCGTGTGTGCGAA [SELEX round 9 pool]” returned a binding signal (% of input DNA bound) of 77.4.

For the origin of these results see patent publication US20250347705.
